From article PMC4087533 (Nature, 2014) come the findings set out here.

The target of data set [1] is mechanosensitive channel of large conductance (MscL) from Mycobacterium tuberculosis (tag-removed) (Mycobacterium tuberculosis). Nature of the data set: native MS.
The data set “native MS” concerns the molecule itself. Nature of the data set: native MS.

On to “mechanosensitive channel of large conductance (MscL) from Mycobacterium tuberculosis (tag-removed) (natural protein)”, for which, in data set [1], the stoichiometry N was found to be 5.

B1: ammonia channel AmtB from E. coli (tag-removed) (natural protein)
chain: GASVADKADNAFMMICTALVLFMTIPGIALFYGGLIRGKNVLSMLTQVTVTFALVCILWVVYGYSLAFGEGNNFFGNINWLMLKNIELTAVMGSIYQYIHVAFQGSFACITVGLIVGALAERIRFSAVLIFVVVWLTLSYIPIAHMVWGGGLLASHGALDFAGGTVVHINAAIAGLVGAYLIGKRVGFGKEAFKPHNLPMVFTGTAILYIGWFGFNAGSAGTANEIAALAFVNTVVATAAAILGWIFGEWALRGKPSLLGACSGAIAGLVGVTPACGYIGVGGALIIGVVAGLAGLWGVTMLKRLLRVDDPCDVFGVHGVCGIVGCIMTGIFAASSLGGVGFAEGVTMGHQLLVQLESIAITIVWSGVVAFIGYKLADLTVGLRVPEEQEREGLDVNSHGENAYNA
Regarding B1, the “stoichiometry N” value in the data set “native MS” turned out to be 3.
